Results as given in patent publication CN115433279A (SUZHOU DIMA BIOTECHNOLOGY CO LTD, dated 2022).

Legend:
CD123全长蛋白 (细胞膜上CD123) = target: T1, CD123全长蛋白 (细胞膜上CD123) (UniProt P26951 19-378, limits assumed); assay: flow cytometry on Raji cells, antibody titration
T1 construct: whole, on cells; also called 天然细胞表面CD123蛋白

CD123 FC融合标签蛋白 = CD123 FC融合标签蛋白 (UniProt P26951); assay: indirect ELISA, CD123 protein coated at 1 μg/ml, B cell clone supernatant

T1 sequence (P26951 19-378 limits assumed): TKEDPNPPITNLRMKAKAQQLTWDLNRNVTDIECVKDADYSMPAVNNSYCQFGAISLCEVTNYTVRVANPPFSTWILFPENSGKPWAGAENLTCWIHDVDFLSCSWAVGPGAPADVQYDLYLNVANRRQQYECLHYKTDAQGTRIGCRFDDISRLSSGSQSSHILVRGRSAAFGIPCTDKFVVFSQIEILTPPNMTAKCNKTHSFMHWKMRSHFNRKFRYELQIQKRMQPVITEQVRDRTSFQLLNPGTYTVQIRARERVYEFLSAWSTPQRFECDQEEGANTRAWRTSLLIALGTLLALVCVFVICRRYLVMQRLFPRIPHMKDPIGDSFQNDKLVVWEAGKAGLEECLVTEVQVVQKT

| Binder | binding result (CD123全长蛋白 (细胞膜上CD123)) | OD450 (CD123 FC融合标签蛋白) [OD450] |
| --- | --- | --- |
| 命名为1E5的兔重组单克隆抗体 (antibody, V domains shown) VH: QSVKESAGGLFKPTDTLTLTCTASGFTISSNAITWVRQAPGNGLEWIGGIDSSGSAYYASWAKSRSTITRNTNLNTVTLKMTSLTAADTATYFCAGGSNIWGPGTLVTVSS VL: DIVMTQTPSSVSAAVGGTVTIKCQASESIYSYLSWYQQKPGQPPKLLIYLASTLDSGVPSRFKGSGSGTQFTLTISDLECADAATYYCQSSYFSSGSSYGNTFGGGTEVVVK | binds | 1.87 |
| 命名为1E4的兔重组单克隆抗体 (antibody, V domains shown, In the later assays it was recombinant antibody purified from 293 cells) VH: QSLEESGGRLVTPGTPLTLTCTASGFSLSSYYMSWVRQAPGKGLEYIGIIYDSGSTWYANWAKGRFTISKTSTAVYLEITSPTTEDTATYFCARTGSIYYIWLDLWGQGTLVTVSS VL: AAVLTQTPSPVSAAVGGSVTISCQSSQTIYKNNDLAWYQQKPGQPPKLLIYEASKLASGVPSRFSGSGSGTQFTLTISGVQCDDAATYYCLGGYDDDDDNTFGGGTEVVVK | binds | 2.1 |

Results, then the binder that gave them:

| binding result (CD123全长蛋白 (细胞膜上CD123)) | OD450 (CD123 FC融合标签蛋白) [OD450] | Binder |
| --- | --- | --- |
| – | 1.53 | 命名为1E6的兔重组单克隆抗体 (antibody, V domains shown) VH: QSVEESGGRLVTPGTPLTLACTVSGFDISSYSMSWVRQAPGKGLEWIGSGIIGGSTYYASWAKGRFTISKTSTTVDLKITSPTTEDTATYFCARFAGTSSTDYYDLWGQGTLVTVSS VL: TQTPSSVEAAVGGTVTIKCQASQSIDSYLAWYQQKPGQPPKLLIYDTSTLASGVSSRFKGSGSGTQFTLTISDLECADAATYYCQNYWIITTFGFGGGTEVVVK |
| – | 1.77 | 命名为5D3的兔重组单克隆抗体 (antibody, V domains shown) VH: GGAEGGLVKPGGSLELCCKASGFSLSNLRVNWVRQAPGKGLEWIGCIISDSSGTTSYASWVNGRFTLSRDIDQNTGCLQLNSLTVADTAMYYCASRVNITSYDLSLWGQGTLVTVSS VL: AAVLTQTPSPVSAAVGGTVSISCQSSKSVYNNKWLSWFQQKPGQPPKLLIYSASTLASGVPSRFSGSGSGTDFTLTISDVQCDDAATYYCAGGYSGSSDTYSFGGGTEVVVK |
